US20130109581A1, “POSITIVELY CHARGED SPECIES AS BINDING REAGENTS IN THE SEPARATION OF PROTEIN AGGREGATES FROM MONOMERS” (priority 2009, published 2013)
Several values for one entry are separate records, joined by “and”; a condition that tells them apart may be missing. Equal entries are not always repeated. Where two headings read alike, the source gives them in different places. Blank lines part the entries; values can stand above or below the substance they belong to.

Experiments:
[1] = biological target: Abeta 1-40 monomer (UniProt P05067); experiment: MPA bead capture, Abeta 1-40 read-out of the CSF sample (noise)
[2] = biological target: Abeta 1-42 globulomer (UniProt P05067)
[3] = biological target: PrPSc, prion aggregates of prion infected hamster (Syrian hamster) (UniProt P04273); experiment: cell-based or functional assay
[4] = biological target: Abeta 1-42 globulomer (UniProt P05067); experiment: MPA, pulldown in CSF, 1% TW20 wash
[5] = biological target: Abeta 1-42 monomer (UniProt P05067); experiment: MPA, unspiked CSF background, ASB-14 wash
[6] = biological target: Abeta 1-42 monomer (UniProt P05067); experiment: MPA, unspiked CSF background, ASB-16 wash
[7] = biological target: Abeta 1-42 monomer (UniProt P05067); experiment: MPA, unspiked CSF background, ZW3-08 wash
[8] = biological target: Abeta 1-42 monomer (UniProt P05067); experiment: MPA, unspiked CSF background, ZW3-12 wash
[9] = biological target: Abeta 1-42 monomer (UniProt P05067); experiment: MPA, unspiked CSF background, ZW3-14 wash
[10] = biological target: Abeta 1-42 monomer (UniProt P05067); experiment: MPA, unspiked CSF background, ZW3-16 wash
[11] = biological target: Abeta 1-42 monomer (UniProt P05067); experiment: MPA, unspiked CSF background, Brij 35 wash
[12] = biological target: Abeta 1-42 monomer (UniProt P05067); experiment: MPA, unspiked CSF background, Empigen wash
[13] = biological target: Abeta 1-42 globulomer (UniProt P05067); experiment: MPA, CSF + 0.5 ng/mL globulomer, ASB-14 wash
[14] = biological target: Abeta 1-42 globulomer (UniProt P05067); experiment: MPA, CSF + 0.5 ng/mL globulomer, ASB-16 wash
[15] = biological target: Abeta 1-42 globulomer (UniProt P05067); experiment: MPA, CSF + 0.5 ng/mL globulomer, ZW3-08 wash
[16] = biological target: Abeta 1-42 globulomer (UniProt P05067); experiment: MPA, CSF + 0.5 ng/mL globulomer, ZW3-12 wash
[17] = biological target: Abeta 1-42 globulomer (UniProt P05067); experiment: MPA, CSF + 0.5 ng/mL globulomer, ZW3-14 wash
[18] = biological target: Abeta 1-42 globulomer (UniProt P05067); experiment: MPA, CSF + 0.5 ng/mL globulomer, ZW3-16 wash
[19] = biological target: Abeta 1-42 monomer (UniProt P05067); experiment: MPA, unspiked CSF background, ASB-C8phn wash
[20] = biological target: Abeta 1-42 globulomer (UniProt P05067); experiment: MPA, pulldown in CSF, no added detergent wash
[21] = biological target: Abeta 1-42 globulomer (UniProt P05067); experiment: MPA, CSF + 0.5 ng/mL globulomer, Brij 35 wash
[22] = biological target: Abeta 1-42 globulomer (UniProt P05067); experiment: MPA, CSF + 0.5 ng/mL globulomer, Empigen wash
[23] = biological target: Abeta 1-42 globulomer (UniProt P05067); experiment: MPA, pulldown in TBSTT, no added detergent wash
[24] = biological target: Abeta 1-42 globulomer (UniProt P05067); experiment: MPA, CSF + 0.5 ng/mL globulomer, ASB-C8phn wash
[25] = biological target: Abeta 1-42 monomer (UniProt P05067); experiment: MPA, unspiked CSF background, Pluronic F-127 wash
[26] = biological target: Abeta 1-42 globulomer (UniProt P05067); experiment: MPA, PSR1 beads, globulomer spiked into normal CSF
[27] = biological target: Abeta 1-42 globulomer (UniProt P05067); experiment: 42 (globulomer) RLU over 40 (Abeta 1-40 monomer) RLU
[28] = biological target: Abeta 1-42 globulomer (UniProt P05067); experiment: MPA, 0.5 over 0 ng/mL globulomer in CSF, ASB-14 wash
[29] = biological target: Abeta 1-42 globulomer (UniProt P05067); experiment: MPA, 0.5 over 0 ng/mL globulomer in CSF, ASB-16 wash
[30] = biological target: Abeta 1-42 globulomer (UniProt P05067); experiment: MPA, 0.5 over 0 ng/mL globulomer in CSF, ZW3-08 wash
[31] = biological target: Abeta 1-42 globulomer (UniProt P05067); experiment: MPA, 0.5 over 0 ng/mL globulomer in CSF, ZW3-12 wash
[32] = biological target: Abeta 1-42 globulomer (UniProt P05067); experiment: MPA, 0.5 over 0 ng/mL globulomer in CSF, ZW3-14 wash
[33] = biological target: Abeta 1-42 globulomer (UniProt P05067); experiment: MPA, 0.5 over 0 ng/mL globulomer in CSF, ZW3-16 wash
[34] = biological target: Abeta 1-42 globulomer (UniProt P05067); experiment: MPA, CSF + 0.5 ng/mL globulomer, Pluronic F-127 wash
[35] = biological target: Abeta 1-42 globulomer (UniProt P05067); experiment: MPA, 0.5 over 0 ng/mL globulomer in CSF, Brij 35 wash
[36] = biological target: Abeta 1-42 globulomer (UniProt P05067); experiment: MPA, 0.5 over 0 ng/mL globulomer in CSF, Empigen wash
[37] = biological target: ADDL (Abeta42 aggregate) (UniProt P05067); experiment: MPA, serial dilutions in CSF, LoD = 2x over background
[38] = biological target: ASPD (Abeta42 aggregate) (UniProt P05067); experiment: as above
[39] = biological target: Abeta 1-42 globulomer (UniProt P05067); experiment: as above
[40] = biological target: Abeta 1-42 monomer (UniProt P05067); experiment: as above
[41] = biological target: Abeta42 fibrils (UniProt P05067); experiment: as above
[42] = biological target: ADDL (Abeta42 aggregate) (UniProt P05067); experiment: as above; remark: listed apart in the source
[43] = biological target: ASPD (Abeta42 aggregate) (UniProt P05067); experiment: as above; remark: listed apart in the source
[44] = biological target: Abeta (1-42) aggregates from Alzheimer's Disease Brain Homogenate (human) (UniProt P05067); experiment: as above
[45] = biological target: Abeta 1-42 globulomer (UniProt P05067); experiment: as above; remark: listed apart in the source
[46] = biological target: Abeta42 fibrils (UniProt P05067); experiment: as above; remark: listed apart in the source
[47] = biological target: Abeta 1-42 globulomer (UniProt P05067); experiment: MPA, 0.5 over 0 ng/mL globulomer in CSF, ASB-C8phn wash
[48] = biological target: Abeta 1-42 globulomer (UniProt P05067); experiment: MPA, PSR1 beads, globulomer spiked into buffer (TBSTT)
[49] = biological target: Abeta 1-42 globulomer (UniProt P05067); experiment: MPA, 0.5 over 0 ng/mL globulomer in CSF, Pluronic F-127 wash
[50] = biological target: Abeta 1-42 globulomer (UniProt P05067); experiment: MPA bead capture, CSF + 1 ng/mL globulomer, Abeta immunoassay
[51] = biological target: Abeta (1-42) aggregates from Alzheimer's Disease Brain Homogenate (human) (UniProt P05067); experiment: MPA, serial dilutions of ADBH in CSF, LoD = 2x over background
[52] = biological target: Abeta 1-42 globulomer (UniProt P05067); experiment: MPA, globulomer Abeta 42 RLU over average Abeta 40 RLU, ASB-14 wash
[53] = biological target: Abeta 1-42 globulomer (UniProt P05067); experiment: MPA, globulomer Abeta 42 RLU over average Abeta 40 RLU, ASB-16 wash
[54] = biological target: Abeta 1-42 globulomer (UniProt P05067); experiment: MPA, globulomer Abeta 42 RLU over average Abeta 40 RLU, ZW3-08 wash
[55] = biological target: Abeta 1-42 globulomer (UniProt P05067); experiment: MPA, globulomer Abeta 42 RLU over average Abeta 40 RLU, ZW3-12 wash
[56] = biological target: Abeta 1-42 globulomer (UniProt P05067); experiment: MPA, globulomer Abeta 42 RLU over average Abeta 40 RLU, ZW3-14 wash
[57] = biological target: Abeta 1-42 globulomer (UniProt P05067); experiment: MPA, globulomer Abeta 42 RLU over average Abeta 40 RLU, ZW3-16 wash
[58] = biological target: Abeta 1-42 globulomer (UniProt P05067); experiment: MPA, globulomer Abeta 42 RLU over average Abeta 40 RLU, Brij 35 wash
[59] = biological target: Abeta 1-42 globulomer (UniProt P05067); experiment: MPA, globulomer Abeta 42 RLU over average Abeta 40 RLU, Empigen wash
[60] = biological target: Abeta 1-42 globulomer (UniProt P05067); experiment: MPA, globulomer Abeta 42 RLU over average Abeta 40 RLU, ASB-C8phn wash
[61] = biological target: Abeta 1-42 globulomer (UniProt P05067); experiment: MPA, globulomer Abeta 42 RLU over average Abeta 40 RLU, Pluronic F-127 wash
[62] = biological target: Abeta (1-42) aggregates from Alzheimer's Disease Brain Homogenate (human) (UniProt P05067); experiment: MPA, AD brain homogenate in plasma, Abeta(1-42) ELISA

average RLU (40) [1]: 192 RLU
Substance: KKKFKF-link (peptide)

Substance: KKKKKK (peptide)
average RLU (40) [1]: 197 RLU

Substance: PSR1 (peptoid, directly conjugated to Dynal M270 beads)
LoD of globulomer, RLU (S/N = 2) [2]: 199 RLU
LoD of globulomer, pg/mL (Cal) [2]: 2.33 pg/mL
S/N at 25.3 pg/mL [2]: 10.3
Attack rate (Clinical TSE/total inoculated), Pool 2 [3]: 100%
Attack rate (Clinical TSE/total inoculated), Pool 3 (pre-symptomatic) [3]: 50%
Attack rate (Clinical TSE/total inoculated), Pool 4 [3]: 100%
Mean incubation period (days), Pool 1 [3]: 94 dpi
Mean incubation period (days), Pool 2 [3]: 74 dpi
Mean incubation period (days), Pool 4 [3]: 76 dpi
incubation period (days), Pool 3 (pre-symptomatic) [3]: 56 days and 85 days
LoD of globulomer, RLU (S/N = 2) [4]: 211 RLU
LoD of globulomer, pg/mL (Cal) [4]: 2.52 pg/mL
S/N at 25.3 pg/mL [4]: 11
Abeta 42 RLU, 0 ng/mL Average [5]: 89.7 RLU
Abeta 42 RLU, 0 ng/mL Average [6]: 95.7 RLU
Abeta 42 RLU, 0 ng/mL Average [7]: 97.7 RLU
Abeta 42 RLU, 0 ng/mL Average [8]: 90.7 RLU
Abeta 42 RLU, 0 ng/mL Average [9]: 110 RLU
Abeta 42 RLU, 0 ng/mL Average [10]: 67 RLU
Abeta 42 RLU, 0 ng/mL Average [11]: 117 RLU
Abeta 42 RLU, 0 ng/mL Average [12]: 76.7 RLU
Abeta 42 RLU, 0.5 ng/mL Average [13]: 779 RLU
Abeta 42 RLU, 0.5 ng/mL Average [14]: 789 RLU
Abeta 42 RLU, 0.5 ng/mL Average [15]: 669 RLU
Abeta 42 RLU, 0.5 ng/mL Average [16]: 642 RLU
Abeta 42 RLU, 0.5 ng/mL Average [17]: 842 RLU
Abeta 42 RLU, 0.5 ng/mL Average [18]: 731 RLU
Abeta 42 RLU, 0 ng/mL Average [19]: 101 RLU
LoD of globulomer, RLU (S/N = 2) [20]: 456 RLU
LoD of globulomer, pg/mL (Cal) [20]: 6.16 pg/mL
S/N at 25.3 pg/mL [20]: 5.7
Abeta 42 RLU, 0.5 ng/mL Average [21]: 741 RLU
Abeta 42 RLU, 0.5 ng/mL Average [22]: 670 RLU
LoD of globulomer, RLU (S/N = 2) [23]: 204 RLU
LoD of globulomer, pg/mL (Cal) [23]: 2.34 pg/mL
S/N at 25.3 pg/mL [23]: 13.7
Abeta 42 RLU, 0.5 ng/mL Average [24]: 936 RLU
Abeta 42 RLU, 0 ng/mL Average [25]: 117 RLU
limit of detection (LoD) [26]: 10 pM
42:40 ratio [27]: 4.1
S/N Abeta 42 globulomer-spiked/unspiked [28]: 8.7
S/N Abeta 42 globulomer-spiked/unspiked [29]: 8.2
S/N Abeta 42 globulomer-spiked/unspiked [30]: 6.8
S/N Abeta 42 globulomer-spiked/unspiked [31]: 7.1
S/N Abeta 42 globulomer-spiked/unspiked [32]: 7.7
S/N Abeta 42 globulomer-spiked/unspiked [33]: 10.9
Abeta 42 RLU, 0.5 ng/mL Average [34]: 739 RLU
S/N Abeta 42 globulomer-spiked/unspiked [35]: 6.3
S/N Abeta 42 globulomer-spiked/unspiked [36]: 8.7
LoD [37]: 200 pg/mL
LoD (amol) [37]: 20 amol
LoD [38]: 200 pg/mL
LoD (amol) [38]: 20 amol
LoD [39]: 75 pg/mL
LoD (amol) [39]: 140 amol
LoD [40]: 1000 pg/mL
LoD (amol) [40]: 22000 amol
LoD [41]: 50 pg/mL
LoD (amol) [41]: < 2 amol
LoD [42]: 200 pg/mL
LoD [43]: 200 pg/mL
LoD [44]: < 5 pg/mL
LoD [45]: 75 pg/mL
LoD [46]: 50 pg/mL
S/N Abeta 42 globulomer-spiked/unspiked [47]: 9.3
limit of detection (LoD) [48]: 5 pM
S/N Abeta 42 globulomer-spiked/unspiked [49]: 6.3
average RLU (42) [50]: 970 RLU
LoD (amol) [51]: < 0.2 amol
average RLU (40) [1]: 234 RLU
S/N Abeta 42 globulomer-spiked/Abeta 40 [52]: 2
S/N Abeta 42 globulomer-spiked/Abeta 40 [53]: 2.8
S/N Abeta 42 globulomer-spiked/Abeta 40 [54]: 0.9
S/N Abeta 42 globulomer-spiked/Abeta 40 [55]: 1.4
S/N Abeta 42 globulomer-spiked/Abeta 40 [56]: 2.2
S/N Abeta 42 globulomer-spiked/Abeta 40 [57]: 3.7
S/N Abeta 42 globulomer-spiked/Abeta 40 [58]: 1
S/N Abeta 42 globulomer-spiked/Abeta 40 [59]: 2.6
S/N Abeta 42 globulomer-spiked/Abeta 40 [60]: 1.4
S/N Abeta 42 globulomer-spiked/Abeta 40 [61]: 0.9

Substance: biotinylated PSR1 (+++A+A) on streptavidin magnetic beads
limit of detection [62]: 3.8 mL/assay
